Patent US20260265321A1, “PEPTIDE AND POLYPEPTIDE INHIBITING THE NF-KB SIGNALING PATHWAY” (Centre National de la Recherche Scientifique, priority 2023, published 2026)
One block for each molecule: values may come before it.

Key:
[1] = target: T1, 6×His-IKKβ(1-669) EE (Homo sapiens, UniProt O14920, S177E/S181E); assay: MBP-pulldown of recombinant IKKβ by MBP-peptide fusions; format: binding; details: 0.3 μM IKKβ, Western blot
T1 construct: a nearly full-length (residues 1-669) and constitutively active (S177E/S181E) mutant construct of human IKKβ; made in house; host or cells: Sf21 insect cells (baculovirus)
T1 sequence (O14920 1-669 S177E/S181E): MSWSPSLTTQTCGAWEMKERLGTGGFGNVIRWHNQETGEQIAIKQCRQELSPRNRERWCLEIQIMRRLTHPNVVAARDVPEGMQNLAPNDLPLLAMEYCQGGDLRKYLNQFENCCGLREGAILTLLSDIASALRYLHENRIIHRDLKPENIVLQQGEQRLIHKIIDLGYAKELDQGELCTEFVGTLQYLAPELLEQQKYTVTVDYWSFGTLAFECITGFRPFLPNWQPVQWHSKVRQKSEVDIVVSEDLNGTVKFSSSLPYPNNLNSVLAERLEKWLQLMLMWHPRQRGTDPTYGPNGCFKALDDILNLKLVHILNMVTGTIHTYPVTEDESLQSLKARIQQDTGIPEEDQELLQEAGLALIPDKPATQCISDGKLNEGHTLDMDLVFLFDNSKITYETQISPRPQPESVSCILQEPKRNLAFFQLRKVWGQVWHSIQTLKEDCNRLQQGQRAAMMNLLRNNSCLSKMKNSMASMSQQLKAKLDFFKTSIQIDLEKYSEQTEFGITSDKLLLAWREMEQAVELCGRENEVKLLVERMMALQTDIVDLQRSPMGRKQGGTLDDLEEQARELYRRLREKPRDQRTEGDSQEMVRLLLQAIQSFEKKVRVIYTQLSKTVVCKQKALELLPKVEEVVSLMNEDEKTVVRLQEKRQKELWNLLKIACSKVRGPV
Description: Experiments were performed in PD buffer (20 mM Tris pH 8.0, 150 mM NaCl, 2 mM DTT). For each experiment, 10 μl of amylose resin (dry bead volume) coupled to MBP-fusion constructs were incubated with […] of purified 6×His-IKKα(10-667) EE and 6×His-IKKβ (1-669) EE constructs adjusted at a concentration of 0.3 μM for 2 hours at 4° C. After two quick washing steps with PD buffer, complexes were eluted by incubation with 20 μl of the same buffer supplemented with 20 mM maltose for 15 minutes at 4° C. After mild centrifugation, supernatants were recovered and migrated onto two separate 10% SDS-PAGE gels. One gel was used for Western blot analysis to detect His-IKKα or His-IKKβ using and anti-6×His antibody (Sigma, #SAB4301134), the other for Coomassie staining to detect MBP-fusion proteins. Quantification of band intensity was done using the Image J software.

[2] = target: T2, G1-IKKα, full-length wt IKKα fused to the Gluc1 fragment (human, UniProt O15111 1-745); assay: GPCA (Gaussia princeps protein complementation assay) in HEK293T cells, NLR, mean ± SD of triplicates
T2 construct: Expressed in HEK293T cells for GPCA; full-length; also called Gluc1-IKKα; not shown: Gluc1 fragment of Gaussia princeps luciferase and flexible 20 amino acid linker, N-terminal
T2 sequence (looked up): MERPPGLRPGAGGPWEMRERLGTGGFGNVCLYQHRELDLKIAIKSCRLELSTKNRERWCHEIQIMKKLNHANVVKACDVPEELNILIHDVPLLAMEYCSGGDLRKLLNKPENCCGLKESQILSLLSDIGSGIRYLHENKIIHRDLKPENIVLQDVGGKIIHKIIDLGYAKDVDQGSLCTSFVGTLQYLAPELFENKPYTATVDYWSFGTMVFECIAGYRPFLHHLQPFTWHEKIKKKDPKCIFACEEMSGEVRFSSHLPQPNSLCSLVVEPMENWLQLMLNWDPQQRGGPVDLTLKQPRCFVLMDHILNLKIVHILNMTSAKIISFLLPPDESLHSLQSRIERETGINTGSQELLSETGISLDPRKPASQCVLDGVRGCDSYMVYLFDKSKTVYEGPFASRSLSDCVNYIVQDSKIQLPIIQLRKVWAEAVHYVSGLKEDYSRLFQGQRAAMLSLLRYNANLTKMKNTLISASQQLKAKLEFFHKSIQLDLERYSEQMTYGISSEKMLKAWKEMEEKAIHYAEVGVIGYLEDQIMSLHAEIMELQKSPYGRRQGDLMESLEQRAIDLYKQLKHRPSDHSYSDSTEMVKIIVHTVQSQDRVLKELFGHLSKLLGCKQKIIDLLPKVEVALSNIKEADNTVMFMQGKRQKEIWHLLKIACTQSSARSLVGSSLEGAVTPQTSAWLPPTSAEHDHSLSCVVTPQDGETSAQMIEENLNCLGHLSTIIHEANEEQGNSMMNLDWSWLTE
Description: (§1) HEK293T cells were transfected using the reverse transfection method. Transfection mixes containing 100 ng of pSPICA-N2 and 100 ng of pSPICA-N1 plasmids expressing test proteins plus JetPEI® (Polyplus transfection) were dispensed in white 96-well plates. HEK293T cells were then seeded on the DNA mixes at a concentration of 4.2×10^4 cells per well. 48 hours after transfection, cells were washed with 50 μl of PBS and lysed with 40 μl of Renilla lysis buffer (Promega, E2820) for 30 minutes with agitation. Gaussia princeps luciferase enzymatic activity was measured using a Berthold Centro LB960 luminometer by injecting 50 μl per well of luciferase substrate reagent (Promega, E2820) and counting luminescence for 10 seconds. Results are expressed as a fold change normalized over the sum of controls, specified herein as normalized luminescence ratio (NLR) 29. For a given protein pair A/B, NLR=(Gluc1-A+Gluc2-B)/[(Gluc1-A+Gluc2)+(Gluc1+Gluc2-B)]. All interactions were measured in three independent experiments, with each experiment being carried out in triplicate. The expression levels of Gluc1- and Gluc2-fused proteins were checked by Western blotting. 24 hours post-transfection, HEK293T cells were collected, lysed by incubation on ice and centrifuged. Aliquots of cleared supernatants were loaded onto an 10% SDS-PAGE gel.

[3] = target: T3, G1-IKKβ, full-length wt IKKβ fused to the Gluc1 fragment (human, UniProt O14920 1-756); assay: as above
T3 construct: Expressed in HEK293T cells for GPCA; full-length; also called Gluc1-IKKβ; not shown: Gluc1 fragment of Gaussia princeps luciferase and flexible 20 amino acid linker, N-terminal
T3 sequence (looked up): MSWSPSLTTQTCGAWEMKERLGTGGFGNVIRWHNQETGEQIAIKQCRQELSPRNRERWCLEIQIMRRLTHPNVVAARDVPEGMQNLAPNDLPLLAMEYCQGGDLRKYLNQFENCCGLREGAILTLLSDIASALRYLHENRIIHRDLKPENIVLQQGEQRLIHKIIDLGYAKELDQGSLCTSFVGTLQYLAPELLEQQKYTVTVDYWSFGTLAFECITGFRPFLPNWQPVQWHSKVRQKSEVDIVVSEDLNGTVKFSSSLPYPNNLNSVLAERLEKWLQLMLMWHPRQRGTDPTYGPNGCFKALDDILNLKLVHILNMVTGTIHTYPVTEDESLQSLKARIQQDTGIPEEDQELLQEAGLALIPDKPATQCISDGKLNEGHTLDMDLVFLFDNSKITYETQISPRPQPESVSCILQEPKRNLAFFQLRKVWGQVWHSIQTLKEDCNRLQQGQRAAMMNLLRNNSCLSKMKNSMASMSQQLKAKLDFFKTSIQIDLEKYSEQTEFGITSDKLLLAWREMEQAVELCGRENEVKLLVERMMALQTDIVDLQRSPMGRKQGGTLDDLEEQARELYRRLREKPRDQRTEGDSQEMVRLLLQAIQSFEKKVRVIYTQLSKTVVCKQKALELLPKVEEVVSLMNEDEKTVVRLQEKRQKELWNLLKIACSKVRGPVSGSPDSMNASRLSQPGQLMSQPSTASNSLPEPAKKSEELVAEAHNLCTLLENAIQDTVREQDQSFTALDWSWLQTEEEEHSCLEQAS
Description: as §1

[4] = target: T2, G1-IKKα, full-length wt IKKα fused to …; assay: GPCA (Gaussia princeps protein complementation assay), G1-IKKα FL with G2-p100 constructs, NLR
Description: as §1

Molecule: DELPYDDCVFGGQRLTL [IκBα pep(s), 17 amino acid peptide from the IκBα C-terminus (residues 301-317)]
- interaction with IKKβ by pulldown [1]: necessary and sufficient to interact with IKKβ

- interaction with IKKβ by pulldown [1]: clearly enhance binding to IKKβ
Molecule: EFTEDELPYDDFVFGGQRLTL [C308F IκBα pep, IκBα pep with C308F substitution]

- binding result [2]: binds
- binding result [3]: binds
B1: 73-288 (other)
chain: DGDSFLHLAIIHEEKALTMEVIRQVKGDLAFLNFQNNLQQTPLHLAVITNQPEIAEALLGAGCDPELRDFRGNTPLHLACEQGCLASVGVLTQSCTTPHLHSILKATNYNGHTCLHLASIHGYLGIVELLVSLGADVNAQEPCNGRTALHLAVDLQNPDLVSLLLKCGADVNRVTYQGYSPYQLTWGRPSTRIQQQLGQLTLENLQMLPESEDEES
notes: also called G2-IκBα 73-288; IκBα(73-288); not shown: N-terminal Gluc2 fragment of Gaussia princeps luciferase and the flexible 20 amino acid linker (pSPICA-N2)

- binding result [4]: binds
B2: 39-852 (other)
chain: YLVIVEQPKQRGFRFRYGCEGPSHGGLPGASSEKGRKTYPTVKICNYEGPAKIEVDLVTHSDPPRAHAHSLVGKQCSELGICAVSVGPKDMTAQFNNLGVLHVTKKNMMGTMIQKLQRQRLRSRPQGLTEAEQRELEQEAKELKKVMDLSIVRLRFSAFLRASDGSFSLPLKPVISQPIHDSKSPGASNLKISRMDKTAGSVRGGDEVYLLCDKVQKDDIEVRFYEDDENGWQAFGDFSPTDVHKQYAIVFRTPPYHKMKIERPVTVFLQLKRKRGGDVSDSKQFTYYPLVEDKEEVQRKRRKALPTFSQPFGGGSHMGGGSGGAAGGYGGAGGGGSLGFFPSSLAYSPYQSGAGPMGCYPGGGGGAQMAATVPSRDSGEEAAEPSAPSRTPQCEPQAPEMLQRAREYNARLFGLAQRSARALLDYGVTADARALLAGQRHLLTAQDENGDTPLHLAIIHGQTSVIEQIVYVIHHAQDLGVVNLTNHLHQTPLHLAVITGQTSVVSFLLRVGADPALLDRHGDSAMHLALRAGAGAPELLRALLQSGAPAVPQLLHMPDFEGLYPVHLAVRARSPECLDLLVDSGAEVEATERQGGRTALHLATEMEELGLVTHLVTKLRANVNARTFAGNTPLHLAAGLGYPTLTRLLLKAGADIHAENEEPLCPLPSPPTSDSDSDSEGPEKDTRSSFRGHTPLDLTCSTKVKTLLLNAAQNTMEPPLTPPSPAGPGLSLGDTALQNLEQLLDGPEAQGSWAELAERLGLRSLVDTYRQTTSPSGSLLRSYELAGGDLAGLLEALSDMGLEEGVRLLRGPET
notes: also called G2-p100 39-852; not shown: N-terminal Gluc2 fragment of Gaussia princeps luciferase and the flexible 20 amino acid linker (pSPICA-N2)

- binding result [2]: binds
- binding result [3]: binds
B3: 73-317 YD/SS (other)
chain: DGDSFLHLAIIHEEKALTMEVIRQVKGDLAFLNFQNNLQQTPLHLAVITNQPEIAEALLGAGCDPELRDFRGNTPLHLACEQGCLASVGVLTQSCTTPHLHSILKATNYNGHTCLHLASIHGYLGIVELLVSLGADVNAQEPCNGRTALHLAVDLQNPDLVSLLLKCGADVNRVTYQGYSPYQLTWGRPSTRIQQQLGQLTLENLQMLPESEDEESYDTESEFTEFTEDELPSDSCVFGGQRLTL
notes: also called G2-IκBα 73-317 YD/SS; G2-IκBα(73-317) Y305S/D307S; not shown: N-terminal Gluc2 fragment of Gaussia princeps luciferase and the flexible 20 amino acid linker (pSPICA-N2)

- binding result [2]: binds
- binding result [3]: binds
B4: G2-IκBα FL (other, UniProt P25963 1-317, looked up)
chain: MFQAAERPQEWAMEGPRDGLKKERLLDDRHDSGLDSMKDEEYEQMVKELQEIRLEPQEVPRGSEPWKQQLTEDGDSFLHLAIIHEEKALTMEVIRQVKGDLAFLNFQNNLQQTPLHLAVITNQPEIAEALLGAGCDPELRDFRGNTPLHLACEQGCLASVGVLTQSCTTPHLHSILKATNYNGHTCLHLASIHGYLGIVELLVSLGADVNAQEPCNGRTALHLAVDLQNPDLVSLLLKCGADVNRVTYQGYSPYQLTWGRPSTRIQQQLGQLTLENLQMLPESEDEESYDTESEFTEFTEDELPYDDCVFGGQRLTL
notes: range 1-317; Expressed in HEK293T cells for GPCA; also called full-length IκBα; not shown: Gluc2 fragment of Gaussia princeps luciferase and flexible 20 amino acid linker, N-terminal
